One molecule from patent US20230159603A1 can be followed below.

This assay concerns the target CD122-Fc (UniProt P14784). Kind of assay: SPR, construct immobilised, CD122-Fc flowed, after protease cleavage. A general note: SPR reads the build-up and loss of mass on a sensor chip optically.

Chain of CD122-Fc (P14784 27-239 limits assumed): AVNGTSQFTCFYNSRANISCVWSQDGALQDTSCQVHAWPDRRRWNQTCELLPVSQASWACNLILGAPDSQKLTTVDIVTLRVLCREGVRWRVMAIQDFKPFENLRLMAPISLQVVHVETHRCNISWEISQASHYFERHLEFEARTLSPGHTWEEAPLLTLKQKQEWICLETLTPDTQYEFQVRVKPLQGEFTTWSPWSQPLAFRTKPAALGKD

B1: AK168 after protease cleavage (Fc fusion, from a related filing)
chain: LYHPSGPAPTSSSTKKTQLQLEHLLLDLQMILNGINNYKNPKLTAMLTAKFAMPKKATELKHLQCLEEALKPLEEVLNLAQSKNFHLRPRDLISNINVIVLELKGSETTFMCEYADETATIVEFLNRWITFAQSIISTLT
In general, Kd refers to the equilibrium constant for the complex coming apart. A high value points to a looser complex. Take B1: the Kd came to 175 nM.
